Residue numbers refer to the chain shown, from its start. In names and notes the source's numbering stands.
T1: LRRC15 on the surface of LRRC15+ cells (SAOS-2, U87MG) (UniProt Q8TF66 22-581, limits assumed)
T1 sequence (looked up): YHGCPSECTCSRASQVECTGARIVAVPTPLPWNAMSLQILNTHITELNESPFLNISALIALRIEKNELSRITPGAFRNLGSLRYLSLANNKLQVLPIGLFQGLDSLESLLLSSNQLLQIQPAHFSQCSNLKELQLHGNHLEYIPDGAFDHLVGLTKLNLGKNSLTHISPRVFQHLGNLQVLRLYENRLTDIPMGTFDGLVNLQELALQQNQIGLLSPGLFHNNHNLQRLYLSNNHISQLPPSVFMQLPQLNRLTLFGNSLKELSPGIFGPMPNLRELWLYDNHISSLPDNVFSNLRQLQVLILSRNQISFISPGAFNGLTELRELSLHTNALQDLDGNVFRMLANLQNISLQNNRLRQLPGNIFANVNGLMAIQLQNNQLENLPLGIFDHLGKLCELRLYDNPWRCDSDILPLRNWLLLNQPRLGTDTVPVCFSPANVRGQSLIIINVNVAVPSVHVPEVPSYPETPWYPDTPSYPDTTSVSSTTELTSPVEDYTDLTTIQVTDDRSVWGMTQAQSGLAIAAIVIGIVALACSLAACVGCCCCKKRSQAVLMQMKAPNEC

T2: Human LRRC15 Protein, His Tag (Acro Biosystems) (human, UniProt Q8TF66 22-538, limits assumed)
T2 sequence (looked up): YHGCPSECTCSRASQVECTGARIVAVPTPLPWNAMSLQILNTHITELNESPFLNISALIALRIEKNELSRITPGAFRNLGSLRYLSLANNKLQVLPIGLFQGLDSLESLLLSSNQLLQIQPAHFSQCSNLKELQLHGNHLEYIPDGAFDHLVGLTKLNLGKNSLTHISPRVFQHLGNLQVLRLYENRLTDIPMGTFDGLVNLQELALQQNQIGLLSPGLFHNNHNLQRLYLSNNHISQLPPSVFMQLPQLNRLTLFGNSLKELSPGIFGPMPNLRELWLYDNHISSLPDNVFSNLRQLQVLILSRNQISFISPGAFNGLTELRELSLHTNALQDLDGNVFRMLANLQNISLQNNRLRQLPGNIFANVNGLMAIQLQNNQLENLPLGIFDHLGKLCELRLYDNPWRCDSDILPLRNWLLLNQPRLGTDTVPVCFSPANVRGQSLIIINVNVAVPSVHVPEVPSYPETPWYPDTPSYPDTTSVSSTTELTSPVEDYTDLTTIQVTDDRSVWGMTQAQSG

T3: Human LRRC15 Protein, His Tag (Acro Biosystems) (human, UniProt Q8TF66 22-538, limits assumed)
T3 construct: Bought protein with His tag
T3 sequence (looked up): T2 sequence (looked up)

B1: MYT8415 (antibody, V domains shown)
VH: EVQLVESGGGLVQPGGSLRLSCTASGLDFRRTNYICWVRQAPGKGLEWVGCIYIADVVHYYASWAKGRFTFSRDTSKNTVYLQMNSLRAEDTAVYYCARGADGGFVYGMDLWGQGTLVTVSS
VL: EIVMTQSPSTLSASVGDRVIITCQASQSIGNYLSWYQQKPGKAPKRLIYSASTLPSGVPSRFSGSGSGAEFTLTISSLQPDDFATYYCQNNHWLAGYGHPFGQGTKLTVL
B2: MYT9776 (antibody, V domains shown)
VH: EVQLVESGGGLVQPGGSLRLSCTASGFSFSGHYWICWVRQAPGKGLEWVGCIHGGSHDITYYASWAKGRFTISRDTSKNTVYLQKTSLRAEDTAVYYCASDTSYTAYGNFYFNLWGQGTLVTVSS
VL: EIVMTQSPSPLSASVGDRVIITCQSSQSVLNNNWLAWYQQKPGKAPKLLIYDASSLASGVPSRFSGSGSGAEFTLTISSLQPDDFATYYCQGEFSCGSADCNAFGQGTKLEIK
B3: MYT3315 (antibody, V domains shown)
VH: EVQLVESGGGLVQPGGSLRLSCAVSGFSLTSYGVHWVRQATGKGLEWLGVIWAGGSTNYNSALMSRLTISKENAKSSVYLQMNSLRAGDTAMYYCATHMITEDYYGMDYWGQGTTVTVSS
VL: DIVMTQSPDSLAVSLGERATINCKSSQSLLNSRTRKNYLAWYQQKPGQSPKLLIYWASTRHSGVPDRFSGSGSGTDFTLTISSLQAEDVAVYYCKQSYNLPTFGGGTKVEIK
B4: MYT5712 (antibody, V domains shown)
VH: QEQLEESGGDLVKPGASLTLTCTASGLDFRRTNYICWVRQAPGKGLEWIGCIYIADVVHYYASWAKGRFTFSKTSSTTVTLQMTSLTAADTATYFCARGADGGFVYGMDLWGPGTLVTVSS
VL: DVVMTQTPASVSEPVGGTVTIKCQASQSIGNYLSWYQQKPGQRPKRLIYSASTLPSGVPSRFKGAGSGTEFTLTISDLESADAATYYCQNNYWLAGYGHPFGGGTEVVVK
notes: chimeric antibody (rabbit variable domains, human constant regions); also called 15G7; chimeric 15G7 RabMAb
B5: MYT6092 (antibody, V domains shown)
VH: B4 VH with I52H
VL: B4 VL
notes: chimeric rabbit 15G7 variant (rabbit variable domains, human constant regions); also called 15G7 VH I52H
B6: MYT6094 (antibody, V domains shown)
VH: B4 VH with I54H
VL: B4 VL
notes: chimeric rabbit 15G7 variant (rabbit variable domains, human constant regions); also called 15G7 VH I54H
B7: MYT6088 (antibody, V domains shown)
VH: B4 VH with Y34H
VL: B4 VL
notes: chimeric rabbit 15G7 variant (rabbit variable domains, human constant regions); also called 15G7 VH Y34H
B8: MYT6085 (antibody, V domains shown)
VH: B4 VH with R31H
VL: B4 VL
notes: chimeric rabbit 15G7 variant (rabbit variable domains, human constant regions); also called 15G7 VH R31H
B9: MYT6089 (antibody, V domains shown)
VH: B4 VH with I35H
VL: B4 VL
notes: chimeric rabbit 15G7 variant (rabbit variable domains, human constant regions); also called 15G7 VH I35H
B10: MYT6093 (antibody, V domains shown)
VH: B4 VH with Y53H
VL: B4 VL
notes: chimeric rabbit 15G7 variant (rabbit variable domains, human constant regions); also called 15G7 VH Y53H
B11: MYT6087 (antibody, V domains shown)
VH: B4 VH with N33H
VL: B4 VL
notes: chimeric rabbit 15G7 variant (rabbit variable domains, human constant regions); also called 15G7 VH N33H
B12: MYT6086 (antibody, V domains shown)
VH: B4 VH with T32H
VL: B4 VL
notes: chimeric rabbit 15G7 variant (rabbit variable domains, human constant regions); also called 15G7 VH T32H
B13: MYT6084 (antibody, V domains shown)
VH: B4 VH with R30H
VL: B4 VL
notes: chimeric rabbit 15G7 variant (rabbit variable domains, human constant regions); also called 15G7 VH R30H
B14: MYT6144 (antibody, V domains shown)
VH: B4 VH
VL: B4 VL with W93H
notes: rabbit 15G7 VL W93H; chimeric, human constant regions
B15: MYT6147 (antibody, V domains shown)
VH: B4 VH
VL: B4 VL with G96H
notes: rabbit 15G7 VL G96H; chimeric, human constant regions
B16: MYT6151 (antibody, V domains shown)
VH: B4 VH
VL: B4 VL with P100H
notes: rabbit 15G7 VL P100H; chimeric, human constant regions
B17: MYT6145 (antibody, V domains shown)
VH: B4 VH
VL: B4 VL with L94H
notes: rabbit 15G7 VL L94H; chimeric, human constant regions
B18: MYT6140 (antibody, V domains shown)
VH: B4 VH
VL: B4 VL with Q89H
notes: rabbit 15G7 VL Q89H; chimeric, human constant regions
B19: MYT6148 (antibody, V domains shown)
VH: B4 VH
VL: B4 VL with Y97H
notes: rabbit 15G7 VL Y97H; chimeric, human constant regions
B20: MYT6146 (antibody, V domains shown)
VH: B4 VH
VL: B4 VL with A95H
notes: rabbit 15G7 VL A95H; chimeric, human constant regions
B21: MYT6141 (antibody, V domains shown)
VH: B4 VH
VL: B4 VL with N90H
notes: rabbit 15G7 VL N90H; chimeric, human constant regions
B22: MYT6149 (antibody, V domains shown)
VH: B4 VH
VL: B4 VL with G98H
notes: rabbit 15G7 VL G98H; chimeric, human constant regions
B23: MYT6150 (antibody, V domains shown)
VH: B4 VH
VL: B4 VL with H99A
notes: rabbit 15G7 VL H99A; chimeric, human constant regions
B24: MYT6143 (antibody, V domains shown)
VH: B4 VH
VL: B4 VL with Y92H
notes: rabbit 15G7 VL Y92H; chimeric, human constant regions
B25: MYT6142 (antibody, V domains shown)
VH: B4 VH
VL: B4 VL with N91H
notes: rabbit 15G7 VL N91H; chimeric, human constant regions

These binders were tested against T1, LRRC15 on the surface of LRRC15+ cells … (assay: cell-based or functional assay).

Internalization in U87MG cells (10 nM, 24 hours), FOB = fold over background (IgG control)	Internalization in U87MG cells (10 nM, 24 hours), FOS = fold over samrotamab [fold over samrotamab]	Binder
2.53 fold over background (IgG control)	1.79	B1
2.69 fold over background (IgG control)	1.97	B2
2.57 fold over background (IgG control)	1.83	B3

These binders were tested against T2, Human LRRC15 Protein, His Tag (Acro …) (assay: BLI; dissociation pH 7.4 black, pH 5.4 grey [1/2); D00006 FIG. 1E (1/2]).
Text: (§1) For each individual plot, antigen binding proteins were captured on anti-human Fc biosensors and associated with LRRC15 at pH 7.4. Dissociation was at pH 7.4 (black) or pH 5.4 (grey). Major X-axis ticks=100 seconds, with left dashed vertical line=0 seconds. Major Y-axis ticks=0.5 nm and octet plots are shown MYT5712 and MYT6080-MYT6121.
(§2) Multiple LRRC15-binding monoclonal antibodies have been described in the literature and can be used as a template for engineering pH-dependent binding. We selected discovery RabMAb clone 15G7 (rabbit VH SEQ ID NO: 378, rabbit VL SEQ ID NO: 451; humanized VH SEQ ID NO: 382, humanized VL SEQ ID NO: 455) as a LRRC15-binding monoclonal antibody for pH-engineering via histidine scanning. […] To generate pH-dependent sequence variants, individual amino acid residues within the heavy chain CDRs were systematically substituted with a histidine (or alanine if H was already present in a given position; e.g., MYT6099), one at a time (rabbit, MYT6080-6121). Desirable mutations were transferred to a humanized framework (humanized, MYT 8387-8411). After allowing for four days of protein expression, cell culture supernatants were collected, quantified by SDS-PAGE analysis, and the pH dependence of the variant was evaluated using biolayer interferometry (BLI) on an Octet RED 96e instrument. Briefly, cell culture supernatants were diluted based on qualitative expression level of the variant determined by visual examination of SDS-PAGE gels, 5 μL of cell culture supernatant was diluted into 195 μL of 1×PBST, pH 7.4 for high expressors, 25 μL of cell culture supernatant was diluted into 175 μL of 1×PBST, pH 7.4 for medium expressors and 100 μL of cell culture supernatant was diluted into 100 μL of 1×PBST, pH 7.4 for low expressors for loading onto the sensor tips.

binding result	Binder
binds	B4
binds	B5
binds	B6
binds	B7
binds	B8
binds	B9
binds	B10
binds	B11
binds	B12
binds	B13

What follows are binders tested against T3, Human LRRC15 Protein, His Tag (Acro …) (assay: BLI; dissociation pH 7.4 black, pH 5.4 grey [D00008 FIG. 1F]).
Text: as §1, §2

binding result	Binder
binds	B14
binds	B15
binds	B16
no binding (tested: 50 nM LRRC15)	B17
binds	B18
binds	B19
binds	B20
no binding (tested: 50 nM LRRC15)	B21
binds	B22
binds	B23
binds	B24
binds	B25

Source: patent publication US20250352661A1 (MYTHIC THERAPEUTICS, published 2025)
